# Source: IntAct's records for PubMed 14871493
# Biological target: narb_syne7 narB (UniProt P39458)
# Sequence (P39458 whole entry): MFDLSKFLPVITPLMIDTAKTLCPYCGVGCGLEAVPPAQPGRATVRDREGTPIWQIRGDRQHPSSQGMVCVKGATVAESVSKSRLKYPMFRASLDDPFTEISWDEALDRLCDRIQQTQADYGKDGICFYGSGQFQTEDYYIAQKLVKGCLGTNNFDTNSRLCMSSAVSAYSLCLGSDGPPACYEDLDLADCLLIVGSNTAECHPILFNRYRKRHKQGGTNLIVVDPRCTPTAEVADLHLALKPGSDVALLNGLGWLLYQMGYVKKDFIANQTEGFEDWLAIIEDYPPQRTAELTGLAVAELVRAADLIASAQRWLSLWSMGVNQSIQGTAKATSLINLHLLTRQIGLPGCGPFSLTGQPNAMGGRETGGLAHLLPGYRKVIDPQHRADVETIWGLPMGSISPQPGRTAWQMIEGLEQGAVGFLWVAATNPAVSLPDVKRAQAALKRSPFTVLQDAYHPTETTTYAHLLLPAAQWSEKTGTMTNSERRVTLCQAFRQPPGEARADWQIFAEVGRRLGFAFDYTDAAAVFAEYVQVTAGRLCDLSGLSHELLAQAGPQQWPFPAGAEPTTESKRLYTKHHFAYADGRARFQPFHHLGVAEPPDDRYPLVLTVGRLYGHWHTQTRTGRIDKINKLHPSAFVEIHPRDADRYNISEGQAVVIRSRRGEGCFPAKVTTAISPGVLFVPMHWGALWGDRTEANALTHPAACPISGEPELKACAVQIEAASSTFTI
# Sequence of Ferredoxin-1 (Anabaena sp. (strain PCC 7119)), P0A3C8 E96K (P0A3C8 whole entry E96K): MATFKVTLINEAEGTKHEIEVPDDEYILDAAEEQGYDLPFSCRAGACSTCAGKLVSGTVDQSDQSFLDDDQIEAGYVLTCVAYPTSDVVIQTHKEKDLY
# Sequence of Ferredoxin-1 (Anabaena sp. (strain PCC 7119)), P0A3C8 E95K (P0A3C8 whole entry E95K): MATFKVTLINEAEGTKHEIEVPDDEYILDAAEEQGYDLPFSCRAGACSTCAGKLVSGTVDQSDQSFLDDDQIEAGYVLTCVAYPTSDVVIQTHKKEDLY
# Sequence of Ferredoxin-1 (Anabaena sp. (strain PCC 7119)), P0A3C8 E95K;E96K (P0A3C8 whole entry E95K/E96K): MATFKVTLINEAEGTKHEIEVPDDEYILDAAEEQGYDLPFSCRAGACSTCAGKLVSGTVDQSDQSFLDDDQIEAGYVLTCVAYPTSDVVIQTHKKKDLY
row,effect of a mutation on the interaction,Substance
1,decreasing interaction,"Ferredoxin-1 (Anabaena sp. (strain PCC 7119)), P0A3C8 E95K"
2,decreasing interaction,"Ferredoxin-1 (Anabaena sp. (strain PCC 7119)), P0A3C8 E96K"
3,decreasing interaction,"Ferredoxin-1 (Anabaena sp. (strain PCC 7119)), P0A3C8 E95K;E96K"
